Source: the nanobody polyreactivity screen of Harvey et al. (2022)

Assay: yeast display, Sf9 membrane polyspecificity reagent, FACS + sequencing; frameworks hold sequencing errors
In short: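 Nanobodies from a synthetic yeast display library (Saccharomyces cerevisiae BJ5465), induced 36–48 hours with galactose, were stained 1 hour at 4 °C with 10% biotinylated, detergent-solubilized Sf9 membrane reagent, enriched on streptavidin microbeads, then FACS-sorted. Anti-HA (expression) and streptavidin (reagent binding) fluorescence set low and high (top ~1%) gates. Polyreactivity labels come from the gate of origin. Genes were colony-PCR amplified, MiSeq 2 × 250 sequenced and filtered by CDR length.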

| Sequence | polyreactivity (PSR sort gate) |
| --- | --- |
| QVQLVDSGGGLVQAGGSLRLSCAASGYTFVPYAMGWYRQAPGKERELVAAISSSGGDTYYADSVKGRFTISRDNAKTTVYLQLNSLKPEDTAVYYCNTGVYVWQYWYYGFDYWGQGTQVTVSS | low polyreactivity |
| QVQLVDSGGGLVQAGGSLRLSCAASGYTLDGNAMGWYRQAPGKQREFVAAITIRGGGTYYADSVKGRFTISRDNAKNTDYVQMNSLKPEDSAVYYCNADTYDPFPWGSDYWGQGTQVTVSS | high polyreactivity |
| QVQLVDSGGGLVQAGGSLRLSCAATGFTLPKYAMGWYRQAPGKERELVAAISSGGSTYYADSVKGRYTISRDNAKNTVYLQMNSLKPEDSAVYYCAAKYYYYRRDYWGQGTQVTLSS | high polyreactivity |
| QVQLVDSGGGLVQAGGSLRLSCAAYGLTFTYYDMGWYRQAPGNERELVATFSWSDSSTYADSVKGRFTISRDNAKNTVYLQMNSLKPEDTAVYYCNKVSYYTYDVDYWGQRTQVTVSS | low polyreactivity |
| QVQLVDSGGGLVQAGGSLRLSCADSGRIFVGYAMGWYTQAPGKDRELVAAINRTGSSTYYADSVKGRFTISRDNAKTTVYLQMNSLKPEDTAVYYCNARSGNRYGPRYDYWGQGTQVTVSS | high polyreactivity |
| QVQLVDSGGGLVQAGGSLRLSCASSGFTISPYAMGWYRQAPGKERELVAAISSSGGSTYYADSVKGRFTISRDNAKYTVYLQMTSLKPEDTAVYYCATQGTRRPGKFYYWGQCTQVTVSS | high polyreactivity |
| QVQLVDSGGGLVQAGGSLRLSCASTGSIYRYAIGWNRQSPGKERELVAAINFNGGRTYYADSVKGRFTISSDNAKNTVYLQMNSLKPEDTAVYYCAAVRSSNQGGFDYWGQGTLVTVSS | high polyreactivity |
| QVQLVDSGGGLVQAGGSLRLSCDASGLIFFFYAMRWYRQAPGKERELVAAISDEGVSTDYADSVKGRFTISRDNAKNTVYLQMNSLKPEDTAVYYCAAKTERVYPWFSFGYWGQGTQVTVSS | low polyreactivity |
| QVQLVDSGGGLVQAGGSLRLSCDASGSTFKWYAMGWYRQAPGKERELVAAISWTGASTYYADSVKGRFTISRDNGKNTVYLQMNSLKPEDTAVYYCAADRTYYAMLWTGRSRYDYWGQGTQVTVSS | high polyreactivity |
| QVQLVDSGGGLVQAGGSLRLSCPASGYTIVYNAMGCYRQGPGKEREFVAAITWSGTSTRYADSVKGRFTISRDKAKNTVYLQMNSLKPDDTAVYYCSARFPLVRYNYWGQGTQVTVSS | high polyreactivity |
| QVQLVDSGGGLVQAGGSLRLSCSASGRIFLRYPMGCYRQSPGKERELVAVITWSGGSTNYADSVKGRFTISRDNAKNTVYLQMNSLKPEDTAVYYCAVDNTGRSWPYDYWGQGTQVTVSS | low polyreactivity |
| QVQLVDSGGGLVQAGGSLRLSCSASRSNFVYNAIGWYRKAPWKERELVTGISGGGGTNYADSVKGRFTISRDNEKNTVYLQMNSLKPEDTAVYYCAAEQNYIEFDYWGQGTQVTVSS | low polyreactivity |
| QVQLVDSGGGLVQAGGSLRLSSAASGFIFYEYAMGWYRQAPGKEMELVAAITSGGSTDYADSVKGRFSSSRDNAKNTVYLQMNCMKPDDTAVYYCNADLLTGYYWYKYWGQGTQVSVSS | low polyreactivity |
| QVQLVDSGGGLVQAGGSLRLSSAASGRIFPRYAMGWDRQAPGKERELVATISSGGSTYYADSVKGRFTISRDNAKNTVYLQMISLKPEDTAVYYCATGRQVVRSYSEGDYWGQGTQVTVSS | low polyreactivity |
| QVQLVDSGGGLVQAGGSLRLSSAASGSTFAVNAMGWYIQARGKERELVAAISDSDGSTFYADSVKGRFTISRDNAKNTVYLQMNSLKPEDTAVYYCAATVYRVFRYSYLYYYWGQGTQVTVSS | low polyreactivity |
| QVQLVDSGGGLVQAGGSLRLSSPASGFIIGLYAMGWYRQEPGKERELVAAISTSSGITYYADSVKGRFTISRDNAKNSVYLQMNSLKPEDTAVYYCAARGHYYDFCGQGTQVTVSS | low polyreactivity |
| QVQLVDSGGGLVQAGGSLRLTCAASGSIFDRYAMGWYRQAPGKERELVAAITGRGTSTYYADSVKGRFTISRDNAKNTVYLQMNSLKPEETAVYYCATPFWSRPAQDEYDYWGQGTQVTVSS | high polyreactivity |
| QVQLVDSGGGLVQAGGSLSLSCAASGSTFTWYAMGWYIQAPGKERELVAASRWSGGNTYYADSVKGRFTISRDNAKHTVYLQMNSLKPEDPAVYYCAARLYTAADHYNDWGQGTQVTGSS | high polyreactivity |
| QVQLVDSGGGLVQAGVSLRLSCPASGSIFRPNAMGWYRQAPGKERELVAAINTSDDSTYYADSVKGRFTISRDNAKNTVYLQMNSLIREDTAVYYCAAEYYAYAYGDDYDYWGQGTQVTVSS | low polyreactivity |
| QVQLVDSGGGLVQARGSLRLTCAASGRIYNLYAMGWYRQAPGKERELVAAIRGRGTSTYYADSVKVRFTISRDKAKNTVYFQMNSLKPEDTAVYYCASEGGYGPTLQDTSRYEYWGQGTQVTVSS | low polyreactivity |
| QVQLVDSGGGLVQASGSLRLSCAASGSIFLFYAMGGYRQAPGKERQVVAAITSGGRTYYADSVKGRFTISRDNAKNTVYLQMNSLKPEDTAVYYCNAVRFYSIGLGQDDYWGQGTQVTVSS | low polyreactivity |
| QVQLVDSGGGLVQGGGRLRLSCAASGFTLQSNAMGWYRQAPGKERELVAAISFRGGSTYYADSVKGRFTISRDNAKNTVYLQKNSLKPEDTAVYYCAADFYVHSAYYYGYWGQGTQVTVSS | low polyreactivity |

| Sequence | polyreactivity (PSR sort gate) |
| --- | --- |
| QVQLVDSGGGVVQAGGSLRLSCPASGRTFRGYAMGWYRQAPGKERELVAAISSGGSTYYADSVKGRFTISRDNAKNTVYLQMNSLKPEDTAVYYCAAGGPSTLDDYWGQGTQVTVSS | low polyreactivity |
| QVQLVDSGGGVVQAGLSLRLSCAASGRTFPGYAIGWYRQAPGKEMELVASITSRGGITYYADSVKGRFTISRDNAKITVYLQLNSLKPEDSAVYYCATDFAVTKMEYWGQGSQVTVSS | low polyreactivity |
| QVQLVDSGRGLVQAGGSLRLSCAASGHIFLYYTMAWYRQAPGKERELVAGITIGGSTIYADSVKGRFTISRDNAKNSVYLQMNSMKPEDTAVYYCNVVNYVFIYSYWEYYYWGQGTEVTVSS | low polyreactivity |
| QVQLVDSGRGLVQAGGSLRLSCAASGSIFDNYAMGSYRQAPGNERELVAAISGRGGSTYYADSVKGRFTISRDNAKNTVYLQMNSLKPEDTAVSYCNALVHQTYYDYDDWGHGTQVTVSS | high polyreactivity |
| QVQLVDSGVGLVQAGGSHRLSCAASAFTIDGYDMGWYRQAPGKERELVAAISWDGGSTYYADSVKGRFTISRDNAKNTVYLQMNSLKPEDTAVYYCAAPFPFVSEFYRYDYWGQGTQVTVST | low polyreactivity |
| QVQLVDSGVGLVQAGGSLRLSCASSGSTFTINAMACYRHAPGKERELVAAISSGDSYYADSVKGRFTISRDNAKNTVYLQMNSLKPEDTTAVYYCAADSPGDSSKYDYWGQGTQVTVSS | low polyreactivity |
| QVQLVDSRGCLVQAGGSLRLSFAASGSIFGYYSMVWYIQAPGKESELVAAISYSGSRTYYADSVKGRFTISRDNAKNTVYLQKNSLKPEDTAVYYCAVLRRDGFEYWGQGTQVTVSS | high polyreactivity |
| QVQLVDSRGGLLQAGGSLRLSCAASGSIISRNAKGWYRQAPGKESELVAAITRSGGSTYYADSVKGRFTISRENAKNTVYLQRNRLKPEDTAVYYCATPIFSARRYTGYVKYDYWAQGTQVTVSS | high polyreactivity |
| QVQLVDSRGGLVQAGGSLRLICAASGSTFGRYARGWYRPEPGTERELVAAISWRGGSTFYADSVKGRFTISRDNAKNTVYLLMISLKPEDTAVYYCAAVSYGRPRMGYWGQGTQVTVSS | high polyreactivity |
| QVQLVDSRGGLVQAGGSLRLSCAASGFTFWYYAMGWYRQAPGKERELVAAITNGGGSKYYADSVKGRFTISRDNAKNTFYLQMNSLKPEDTAVFYCAKDGHSYYPWEYDYWGQGTQVTVSS | low polyreactivity |
| QVQLVDSVGGLVQAGGSLRLSCAASGFTFYYNAMGLYRQAPGKERELVAAITSSGGSTYYADSVKGRFTISRDNAKNTVYLQMNSLKPEDTAVYYCAAVVYYRGYTYNYWGQGTQVTVSS | high polyreactivity |
| QVQLVDSVGGLVQAGGSLRLSCAASGSIFGVYAKGWYRQAPGKERELVAAIDESGGSTFYADSVKGRFTISRDNAKNTVYLQMNSLKPEDTAVYYCLVFREDSGPGDYYYWGQGTQVTVSS | low polyreactivity |
| QVQLVDSVGGLVQAGGSLRLSCAASGSIFNPYDMGWSRQAPGKERELVAAIDWSGGSTYYADSVKGRFTISRDNAKNTVYLQMNSLKPEDTAVYYCNARPDYSISLPGYPTLSEDDEYWGQGTQVTVSS | low polyreactivity |
| QVQLVDSVGGLVQAGGSLRLSCAASGSIFWTYAMGWYRQAPGKERELVATITYSDGNTYYADSVKGRFTISRDNAKNTVYLQMHSLKPEDTAVYYCNADGIYASISGYRYDYWGQGTQVTVSS | low polyreactivity |
| QVQLVDSVVGLVQAGGSLRLSFAASGYTYHYYAMGWYRQAPGKETELVAAISGSGSSTYYADSVKGRFTISRDNAKNTVYLQMNSLKPEDTAVYYCNARGHYPRARFGYKSGSDRYWGQGTQVTVSS | high polyreactivity |
| QVQLVDSWGGLVQAGGSLRLSCAASGFIFPYNTMGWYRQAPGKERELVAAISSGGSTYYADSVKGRFTISRDNAKNTVYLQMNSLKPEDTAVYYCAVRGRRSPYGYWGQGTQVTVSS | high polyreactivity |
| QVQLVDTGGGIVQAGGSLRLSCAASGRTFFWNAMGWYRLAPGKERELVAAITWYGGSTYYADSVKGRFTISRDNAKNTVYLQMNSLKPEDSAVYYCAAVVSDYVWRYEYWGQGTQVTVSS | low polyreactivity |
| QVQLVDTGGGLVQAGGSLRFSCAASGSIFQVYAMGWYRQAPGKERELVASITSSGGSTYYADSVKGRFTISRDNAKNTVYLQMNSLKTEDTAVYYCADDQWSQDYDYWGQGTQVTVSS | low polyreactivity |
| QVQLVEAGGCLVQAGGSLRLSCAASGRIFRFYTMGWYRQAPGNERELVAAIRYSSVSTYYADSVKGRFTISRDNAKNTVYLQMNSLKPEDTAVYYCDAVHRSYVKTYNYWGLGTQVTVSS | high polyreactivity |
| QVQLVEAGGGLVQAGGSLRLSCAASGRIFVPYAMGWYRQAPGKEWELVAGISWSGGSTYYADSVKGRFTISRDNAKNTVYLQMNNLKPEDTPVYYCAAAKRRRPFDYWGQGTQVTVSS | high polyreactivity |
| QVQLVEAGGGLVQAGGSLRLSCAASGRIFYQNTMGWYIQAPGKERELVAAISKSGGRTYYADSVKGRFTISRDNAKNTVYLQMNSLKPEDTAVYYCDQGYASEMDYWGQVTQVTVSS | high polyreactivity |
